Data as given in patent US20070082400A1.

Molecular target: human CD40L protein translated from transfected CD40L mRNA (pCR2.1 CD40L WT, >100 nucleotide polyA tail) (human) (UniProt P29965)
Assay: cell-based or functional assay

UniProt P29965, sequence (P29965 whole entry): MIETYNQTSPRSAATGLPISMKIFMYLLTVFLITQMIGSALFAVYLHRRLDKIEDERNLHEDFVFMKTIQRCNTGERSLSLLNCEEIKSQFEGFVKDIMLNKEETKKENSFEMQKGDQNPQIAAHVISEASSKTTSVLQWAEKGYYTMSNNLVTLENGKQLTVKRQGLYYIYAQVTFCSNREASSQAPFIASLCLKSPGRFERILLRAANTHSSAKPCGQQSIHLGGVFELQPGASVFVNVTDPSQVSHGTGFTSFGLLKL

blocking CD40L monoclonal antibody 24-31 (eBioscience)
IL-12p70 (pg/ml), 'Cocktail' matured and reactivated DCs co-cultured with CD40L mRNA-transfected HeLa cells plus IFN-gamma plus 24-31: 2.5 pg/mL
IL-12p70 release by CD40L mRNA-transfected DCs cultured with IFN-gamma and 10 or 50 ug/ml blocking anti-CD40L antibody: 50%
